Measurements published in US20220089640A1 (published 2022).
Numbered stars: 1 amine (or outer) side, 2 acyl side, 3 side chain; on linkers, the order of the positions; unused ones are H or OH. Bridge positions count the residues as written; N and C are the ends. Square brackets hold non-standard residues; d marks the D form. Tyr(OMe) = COc1ccc(C[C@H](N[*:1])C(=O)[*:2])cc1; Trp(5-F) = N[C@@H](Cc1c[nH]c2ccc(F)cc12)C(=O)O; mXylylene = c1cc(C[*:1])cc(C[*:2])c1; Mpa = O=C(O)CCS

Experiments:
biotinylated PCSK9 [1] = molecular target: T1, biotinylated PCSK9 (UniProt Q8NBP7 31-692, limits assumed, biotinylated (site not stated)); test: given in the description of the Alexa FRET Standard assay; method not stated
T1 construct: also called europium-labeled PCSK9
T1 sequence (Q8NBP7 31-692 limits assumed): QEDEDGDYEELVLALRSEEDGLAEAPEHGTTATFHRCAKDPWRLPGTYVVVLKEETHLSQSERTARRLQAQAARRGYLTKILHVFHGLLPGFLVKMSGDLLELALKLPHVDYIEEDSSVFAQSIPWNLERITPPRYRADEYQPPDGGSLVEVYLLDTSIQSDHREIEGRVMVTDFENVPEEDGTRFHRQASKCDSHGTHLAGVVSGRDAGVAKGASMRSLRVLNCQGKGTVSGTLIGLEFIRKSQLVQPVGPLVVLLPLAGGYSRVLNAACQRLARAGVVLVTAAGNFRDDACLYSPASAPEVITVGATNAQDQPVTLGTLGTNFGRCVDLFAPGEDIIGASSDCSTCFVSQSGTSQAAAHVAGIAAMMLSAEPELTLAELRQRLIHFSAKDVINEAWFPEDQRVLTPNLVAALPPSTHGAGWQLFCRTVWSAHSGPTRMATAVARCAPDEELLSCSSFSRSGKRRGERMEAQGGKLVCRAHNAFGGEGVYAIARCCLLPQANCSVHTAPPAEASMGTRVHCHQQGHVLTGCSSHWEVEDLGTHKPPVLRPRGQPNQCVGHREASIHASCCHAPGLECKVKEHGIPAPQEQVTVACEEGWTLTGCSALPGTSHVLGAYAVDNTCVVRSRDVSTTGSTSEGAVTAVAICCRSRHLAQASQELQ

biotinylated PCSK9 [2] = molecular target: T1, biotinylated PCSK9; test: given in the description of the Alexa FRET Plus assay; method not stated

Kd (biotinylated PCSK9 [1]) [nM]	Kd (biotinylated PCSK9 [2]) [nM]	Binder
83		[Mpa]K(ALEXAFLUOR 647)G[Trp(5-F)][Trp(5-F)]DHY[2‑methylproline]C-NH2 (linker N-10 via mXylylene, also called AlexaFluor647 (AF) tagged cyclic peptide; AF cyclic peptide) [Reagent A]
	35	[Mpa]K(ALEXAFLUOR 647)[dA][Trp(5-F)][Trp(5-F)]DH[Tyr(OMe)][2‑methylproline]C-NH2 (linker N-10 via mXylylene, also called AlexaFluor647 (AF) tagged cyclic peptide; AF cyclic peptide) [Reagent B]
